Source: the supplement of paper PMC10567573

B1: TRIM43 (parent)
chain: YQEIFQQLQRSWVKMDQKSKHLKE

Variants of: B1
Test: protein stability index of a GFP-peptide fusion (GPS, HEK-293T) (PSI 1-6); higher = more stable
Conditions: c terminus: a fixed tail appended
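Note: lentivirally expressed fusions sorted by FACS into six bins by GFP to DsRed ratio, PSI derived from sequencing read proportions per bin multiplied by bin number.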

Variant | protein stability index
YQEIFQQLQRSWVVMDQKSKHLKE [K14V] | 2.18
YQEIFQQLQRSWVSMDQKSKHLKE [K14S] | 2.1
YQEIFQQLQRSWVWMDQKSKHLKE [K14W] | 2.61
YQEIFQQLQRSWVIMDQKSKHLKE [K14I] | 1.86
YQEIFQQLQRSWVGMDQKSKHLKE [K14G] | 2.6
YQEIFQQLQRSWVDMDQKSKHLKE [K14D] | 2.77
YQEIFQQLQRSWVNMDQKSKHLKE [K14N] | 2.99
YQEIFQQLQRSWVQMDQKSKHLKE [K14Q] | 2.36
YQEIFQQLQRSWVEMDQKSKHLKE [K14E] | 2.92
YQEIFQQLQRSWVPMDQKSKHLKE [K14P] | 2.19
YQEIFQQLQRSWVTMDQKSKHLKE [K14T] | 2.25
YQEIFQQLQRSWVMMDQKSKHLKE [K14M] | 2.37
YQEIFQQLQRSWVFMDQKSKHLKE [K14F] | 2.35
YQEIFQQLQRSWVAMDQKSKHLKE [K14A] | 2.1
YQEIFQQLQRSWVCMDQKSKHLKE [K14C] | 1.97
YQEIFQQLQRSWVHMDQKSKHLKE [K14H] | 2.04
YQEIFQQLQRSWVRMDQKSKHLKE [K14R] | 1.94
YQEIFQQLQRSWVYMDQKSKHLKE [K14Y] | 2.2
YQEIFQQLQRSWVLMDQKSKHLKE [K14L] | 2.44
YQEIFQQLQRSWVKMDQKSKHAKE [L22A] | 2.22
YQEIFQQLQRSWVKMDQKSKHEKE [L22E] | 3.27
YQEIFQQLQRSWVKMDQKSKHDKE [L22D] | 3.28
YQEIFQQLQRSWVKMDQKSKHCKE [L22C] | 2.6
YQEIFQQLQRSWVKMDQKAKHLKE [S19A] | 3.09

Variant | protein stability index
YQEIFQQLQRSWVKMDQKRKHLKE [S19R] | 1.98
YQEIFQQLQRSWVKMDQKFKHLKE [S19F] | 1.95
YQEIFQQLQRSWVKMDQKGKHLKE [S19G] | 1.86
YQEIFQQLQRSWVKMDQKCKHLKE [S19C] | 1.99
YQEIFQQLQRSWVKMDQKMKHLKE [S19M] | 2.44
YQEIFQQLQRSWVKMDQKDKHLKE [S19D] | 2.68
YQEIFQQLQRSWVKMDQKQKHLKE [S19Q] | 2.14
YQEIFQQLQRSWVKMDQKWKHLKE [S19W] | 2.56
YQEIFQQLQRSWVKMDQKLKHLKE [S19L] | 3.31
YQEIFQQLQRSWVKMDQKNKHLKE [S19N] | 2.35
YQEIFQQLQRSWVKMDQKYKHLKE [S19Y] | 3
YQEIFQQLQRSWVKMDQKVKHLKE [S19V] | 2.12
YQEIFQQLQRSWVKMDQKHKHLKE [S19H] | 1.83
YQEIFQQLQRSWVKMDQKTKHLKE [S19T] | 2.86
YQEIFQQLQRSWVKMDQKEKHLKE [S19E] | 2.29
YQEIFQQLQRSWVKMDQKPKHLKE [S19P] | 2.3
YQEIFQQLQRSWVKMDQKKKHLKE [S19K] | 1.77
YQEIFQQLQRSWVKMDQKIKHLKE [S19I] | 3.05
YQEIFQQLQRSWVKMDQKSKELKE [H21E] | 2.68
YQEIFQQLQRSWVKMDQKSKMLKE [H21M] | 2.5
YQEIFQQLQRSWVKMDQKSKLLKE [H21L] | 1.91
YQEIFQQLQRSWVKMDQKSKGLKE [H21G] | 2.33
YQEIFQQLQRSWVKMDQKSKSLKE [H21S] | 2.37
YQEIFQQLQRSWVKMDQKSKVLKE [H21V] | 1.79

Variant | protein stability index
YQEIFQQLQRSWVKMDQKSKCLKE [H21C] | 2.65
YQEIFQQLQRSWVKMDQKSKNLKE [H21N] | 2.59
YQEIFQQLQRSWVKMDQKSKTLKE [H21T] | 2.28
YQEIFQQLQRSWVKMDQKSKQLKE [H21Q] | 2.28
YQEIFQQLQRSWVKMDQKSKWLKE [H21W] | 1.53
YQEIFQQLQRSWVKMDQKSKKLKE [H21K] | 2.04
YQEIFQQLQRSWVKMDQKSKILKE [H21I] | 2.09
YQEIFQQLQRSWVKMDQKSKYLKE [H21Y] | 2.27
YQEIFQQLQRSWVKMDQKSKDLKE [H21D] | 2.56
YQEIFQQLQRSWVKMDQKSKPLKE [H21P] | 1.64
YQEIFQQLQRSWVKMDQKSKRLKE [H21R] | 2.53
YQEIFQQLQRSWVKMDQKSKFLKE [H21F] | 1.94
YQEIFQQLQRSWVKMDQKSKALKE [H21A] | 2.23
YQEIFQQLQRSWDKMDQKSKHLKE [V13D] | 2.54
YQEIFQQLQRSWIKMDQKSKHLKE [V13I] | 2.14
YQEIFQQLQRSWFKMDQKSKHLKE [V13F] | 2.07
YQEIFQQLQRSWGKMDQKSKHLKE [V13G] | 2.79
YQEIFQQLQRSWLKMDQKSKHLKE [V13L] | 1.92
YQEIFQQLQRSWPKMDQKSKHLKE [V13P] | 2.62
YQEIFQQLQRSWRKMDQKSKHLKE [V13R] | 1.53
YQEIFQQLQRSWNKMDQKSKHLKE [V13N] | 2.22
YQEIFQQLQRSWSKMDQKSKHLKE [V13S] | 2.38
YQEIFQQLQRSWCKMDQKSKHLKE [V13C] | 2.02
YQEIFQQLQRSWYKMDQKSKHLKE [V13Y] | 2.21

Variant | protein stability index
YQEIFQQLQRSWKKMDQKSKHLKE [V13K] | 2.3
YQEIFQQLQRSWHKMDQKSKHLKE [V13H] | 2.48
YQEIFQQLQRSWAKMDQKSKHLKE [V13A] | 2.04
YQEIFQQLQRSWEKMDQKSKHLKE [V13E] | 3.48
YQEIFQQLQRSWQKMDQKSKHLKE [V13Q] | 2.2
YQEIFQQLQRSWTKMDQKSKHLKE [V13T] | 2.08
YQEIFQQLQRSWWKMDQKSKHLKE [V13W] | 1.16
YQEIFQQLQRSWMKMDQKSKHLKE [V13M] | 1.9
YQEIFQQLQRSKVKMDQKSKHLKE [W12K] | 2.7
YQEIFQQLQRSYVKMDQKSKHLKE [W12Y] | 2.18
YQEIFQQLQRSNVKMDQKSKHLKE [W12N] | 2.81
YQEIFQQLQRSFVKMDQKSKHLKE [W12F] | 2.57
YQEIFQQLQRSDVKMDQKSKHLKE [W12D] | 2.78
YQEIFQQLQRSSVKMDQKSKHLKE [W12S] | 2.55
YQEIFQQLQRSGVKMDQKSKHLKE [W12G] | 2.84
YQEIFQQLQRSPVKMDQKSKHLKE [W12P] | 3.48
YQEIFQQLQRSTVKMDQKSKHLKE [W12T] | 2.88
YQEIFQQLQRSEVKMDQKSKHLKE [W12E] | 3.16
YQEIFQQLQRSMVKMDQKSKHLKE [W12M] | 2.42
YQEIFQQLQRSRVKMDQKSKHLKE [W12R] | 3.12
YQEIFQQLQRSLVKMDQKSKHLKE [W12L] | 2.4
YQEIFQQLQRSIVKMDQKSKHLKE [W12I] | 2.29
